The test has as its target T1, HDA9-3xFLAG (HISTONE DEACETYLASE 9, pHDA9::HDA9-3xFLAG/hda9) (Arabidopsis thaliana, UniProt Q8H0W2 1-426).
T1 construct: Histone deacetylase 9 (HDA9), RPD3-type deacetylase, Arabidopsis thaliana; genomic DNA with its 1 kb promoter cloned into pEarleyGate302; Primers are in Supplementary file 1; also called HDA9-FLAG; source: Arabidopsis transgenic plants (native HDA9 promoter, hda9 background): in leaf extract for IP-MS; purified on anti-FLAG M2 beads with 3xFLAG peptide elution for the pull-down
T1 sequence (looked up): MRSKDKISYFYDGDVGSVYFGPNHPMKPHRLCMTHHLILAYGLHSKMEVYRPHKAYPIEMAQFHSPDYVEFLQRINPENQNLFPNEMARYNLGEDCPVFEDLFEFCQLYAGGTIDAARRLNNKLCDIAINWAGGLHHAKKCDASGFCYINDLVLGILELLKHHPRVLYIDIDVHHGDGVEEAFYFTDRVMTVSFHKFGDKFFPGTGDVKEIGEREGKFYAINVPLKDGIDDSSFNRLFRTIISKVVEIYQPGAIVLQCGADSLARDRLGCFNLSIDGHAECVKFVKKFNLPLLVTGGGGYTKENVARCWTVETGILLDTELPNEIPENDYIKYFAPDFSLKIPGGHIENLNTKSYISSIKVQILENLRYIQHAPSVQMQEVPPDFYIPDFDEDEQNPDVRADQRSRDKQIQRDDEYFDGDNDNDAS
Kind of test: pull-down; purified HDA9-FLAG incubated with GST-tagged protein in 20 mM Tris-HCl 8.0, 200 mM NaCl, 1 mM EDTA, 0.5% Nonidet P-40 for one hour, then Glutathione Sepharose 4B beads for one hour at 4°C; detected with anti-GST and anti-FLAG; two technical replicates. The following applies: both partners purified.

B1: GST-WRKY53 (GST tagged full-length WRKY53) (natural protein, Arabidopsis thaliana, UniProt Q9SUP6 1-324, looked up)
chain: MEGRDMLSWEQKTLLSELINGFDAAKKLQARLREAPSPSSSFSSPATAVAETNEILVKQIVSSYERSLLLLNWSSSPSVQLIPTPVTVVPVANPGSVPESPASINGSPRSEEFADGGGSSESHHRQDYIFNSKKRKMLPKWSEKVRISPERGLEGPQDDVFSWRKYGQKDILGAKFPRSYYRCTHRSTQNCWATKQVQRSDGDATVFEVTYRGTHTCSQAITRTPPLASPEKRQDTRVKPAITQKPKDILESLKSNLTVRTDGLDDGKDVFSFPDTPPFYNYGTINGEFGHVESSPIFDVVDWFNPTVEIDTTFPAFLHESIYY
notes: WRKY53 transcription factor, Arabidopsis thaliana; full-length cDNA cloned into pGOOD (pGEX-6P modified by adding a 6XHIS tag at the C terminus); Primers are in Supplementary file 1; source: E. coli, induced with 200 uM IPTG for three hours at 37°C, purified
As to B1, the binding result was “binds”.

(Values after paper PMC5119886, “POWERDRESS interacts with HISTONE DEACETYLASE 9 to promote aging in Arabidopsis” (eLife, 2016).)
